Data taken from patent US20220017630A1 (JIANGSU SIMCERE PHARMACEUTICAL, published 2022).
Substitutions are numbered along the chain they refer to.

B1: TNFR2 antibody #133 (antibody, V domains shown)
VH: EVQLQESGAELVRSGASVKLSCTASGFNIKDYYIQWVKQRPEQGLEWIGWIDPESGNTKYAPKFQDKATMTADTSSNTAYLQLSGLTSEDSAVYYCNAYYDYDGSMDYWGQGTTVTVSS
VL: DIVMTQSPLSLPVSLGDQASISCRSSQSLVHSNGNTYLHWYLQKPGQSPKLLIYKVSNRFSGVPDRFSGSGSGTDFTLKISRVETDDLGVYFCSQSTHVPTWTFGGGTKLEIK
B2: TNFR2 antibody #219 (antibody, V domains shown)
VH: EVQLQESGAELVRPGASVKLSCKASGYSFTNYWMNWVKQRPGQGLEWIGMIHPSDTETRLNQNFKDKATLTVDKSSSTSYMQLSSPTSEDSAVYYCARGEGLGAARSVSMDYWGQGTTVTVSS
VL: DILMTQSPSSLSASLGDRVTISCRASQDISNYLNWYQQKPDGTVKVLIYYTAILHSGVPSRFSGSGSGTDYSLTISNLEQEDIATYFCQQGNTLPWTFGGGTKLEIK
B3: TNFR2 antibody #226 (antibody, V domains shown)
VH: B2 VH with T56S, N63K, S79A
VL: B2 VL with L3Q, I53L
B4: TNFR2 antibody #365 (antibody, V domains shown)
VH: EVQLQESGPGLVQPSQSLSITCTVSGFSLTSYGVHWVRQSPGKGLEWLGLIWSDGSPDYSAAFISRLSINKDNSKSQVFFKMNSLQADDTAIYYCARNDDGGDYVMDYWGQGTTVTVSS
VL: EIVLTQSPALMSASPGEKVTMTCSASSSVSYMYWYQQKPRSSPKPWIYLTSNLASGVPARFSGSGSGTSYSLTISSMEAEDAATYYCQQWTSNPLTFGAGTKLEIK

Each binder was assayed against T1, human TNFR2 on the cell surface (CHO-TNFR2 cells; human Treg cells) (human, UniProt P20333 23-461) (assay: cell-based or functional assay).
T1 sequence (looked up): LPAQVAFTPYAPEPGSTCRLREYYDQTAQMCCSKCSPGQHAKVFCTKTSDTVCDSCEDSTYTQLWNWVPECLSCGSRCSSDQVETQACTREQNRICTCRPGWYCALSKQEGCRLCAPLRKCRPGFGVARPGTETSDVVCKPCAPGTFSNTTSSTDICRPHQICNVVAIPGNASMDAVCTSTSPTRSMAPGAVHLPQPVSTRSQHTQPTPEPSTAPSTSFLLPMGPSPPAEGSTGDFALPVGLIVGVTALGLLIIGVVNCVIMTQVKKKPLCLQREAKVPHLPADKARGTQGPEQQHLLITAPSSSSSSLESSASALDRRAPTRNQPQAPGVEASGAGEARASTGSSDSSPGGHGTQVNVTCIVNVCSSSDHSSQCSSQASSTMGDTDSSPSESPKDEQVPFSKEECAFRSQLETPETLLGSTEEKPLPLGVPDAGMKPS
With B1 the “proliferation inhibition (TNFα-induced Treg cell proliferation, against anti-Hel)” value (shortened to “proliferation inhibition”) was 9.7%. In the case of B2, the “proliferation inhibition” value is reported as 13.6%. With B3 the “proliferation inhibition” value was 10.3%. For B4, the “proliferation inhibition” value was 11%.

What follows are binders tested against T2, Human TNFR2 recombinant protein (Sino 10417-H08H) (human, UniProt P20333 23-257) (assay: SPR Biacore, antibody on Protein A chip, TNFR2 analyte).
T2 construct: also called hTNFR2 (His tag)
T2 sequence (looked up): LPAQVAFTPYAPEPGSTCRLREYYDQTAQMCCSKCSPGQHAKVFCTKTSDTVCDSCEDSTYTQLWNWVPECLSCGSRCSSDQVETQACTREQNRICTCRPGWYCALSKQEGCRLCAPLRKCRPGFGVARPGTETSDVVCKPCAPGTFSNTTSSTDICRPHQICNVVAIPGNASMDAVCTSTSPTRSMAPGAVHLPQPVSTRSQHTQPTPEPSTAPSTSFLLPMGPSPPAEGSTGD
Experimental: (§1) In this experiment, Protein A chip was used, and the time required for the chip to capture the diluted antibody was determined by manual run, so that the Rmax of the saturated binding antigen was 50 RU. Human TNFR2 (Sino 10417-H08H) and cynomolgus TNFR2 (Sino 90102-C08H) were diluted to 32, 16, 8, 4, 2 nM. The affinity of antibody and antigen was measured by multi-cycle kinetics. In each cycle, anti-TNFR2 antibodies were injected prior to the injection of gradient concentrations of TNFR2 protein allowing the occurrence of antibody-antigen association and dissociation. After each cycle, the Protein A chip was regenerated with Glycine pH1.5 (to remove the protein on the chip). BIAcore T200 analysis software was used to calculate the affinity KD of antibody binding to antigen.
A Kd of 2.94 nM, a koff of 0.00388 s⁻¹ and a kon of 1.32e+06 M⁻¹ s⁻¹ were found for B1 in this work. A Kd of 0.234 nM, a koff of 8.4e-05 s⁻¹ and a kon of 358000 M⁻¹ s⁻¹ were found for B2 in this work. A Kd of 0.194 nM, a koff of 7.14e-05 s⁻¹ and a kon of 369000 M⁻¹ s⁻¹ were found for B3 in this work. A Kd of 0.952 nM, a koff of 0.00209 s⁻¹ and a kon of 2.2e+06 M⁻¹ s⁻¹ were found for B4 in this work.

What follows are binders tested against T3, cynomolgus TNFR2 (Sino 90102-C08H) (cynomolgus, UniProt A0A2K5VET2 132-366) in the same assay as above.
T3 construct: also called CynoTNFR2 (His tag)
T3 sequence: T2 sequence (looked up) with S16G, S36P, P117Q, N164H, E210A, S216G, M223V
Experimental: as §1
A Kd of 3.61 nM, a koff of 0.0102 s⁻¹ and a kon of 2.82e+06 M⁻¹ s⁻¹ were found for B1 in this work. A Kd of 0.863 nM, a koff of 0.000481 s⁻¹ and a kon of 558000 M⁻¹ s⁻¹ were found for B2 in this work. A Kd of 0.577 nM, a koff of 0.000318 s⁻¹ and a kon of 551000 M⁻¹ s⁻¹ were found for B3 in this work. A Kd of 0.752 nM, a koff of 0.00308 s⁻¹ and a kon of 4.1e+06 M⁻¹ s⁻¹ were found for B4 in this work.

What follows are binders tested against T1, human TNFR2 on the cell surface … (assay: flow cytometry, blocking of TNFα-biotin on CHO-TNFR2 cells; AUC for 002# / AUC for antibody x 100).
Experimental: (§2) CHO cells that stably overexpressed human TNFR2 were used for experiments. The cells were resuscitated and passaged until in good state, and the expression level of human TNFR2 on the cells was assessed by FACS. Compared to the isotype control, the assay could be carried out when the fold change of mean fluorescence intensity (MFI) was more than 100 times.
(§3) CHO-TNFR2 cells were digested, washed twice with DPBS and stained with Live/Dead (L/D) at room temperature for 20 min, and then seeded at 1×10⁵ cells/50 μl/well. […] The diluted antibodies were added 50 μl/well into wells pre-seeded with cells, and gently blown and mixed to make the final concentrations of the antibodies to 20, 6.67, 2.22, 0.74, 0.247, 0.08, 0.027 and 0 nM, respectively followed by incubation at 4° C. for 30 min. […] After washing twice with the staining buffer, 100 μl/well of PE-streptavidin was added and incubated at 4° C. for 30 min. After additional washing with the staining buffer twice, 150 μl resuspended cells was analyzed using an flow cytometry. Taking the logarithmic value of the antibody concentrations as abscissa and the corresponding MFI value as ordinate, the inhibition curve of the antibody was drawn, and the IC50 value was calculated by four parameters fitting.
An AUC % of 99.9% was found for B1 in this work. An AUC % of 93.7% was found for B2 in this work. An AUC % of 98.7% was found for B3 in this work. An AUC % of 117% was found for B4 in this work.

What follows are binders tested against T1, human TNFR2 on the cell surface … (assay: flow cytometry, blocking of TNFα-biotin on CHO-TNFR2 cells).
Experimental: as §2, §3
An IC50 of 0.04 µg/mL was found for B1 in this work. An IC50 of 0.101 µg/mL was found for B2 in this work. An IC50 of 0.06 µg/mL was found for B3 in this work. An IC50 of 0.041 µg/mL was found for B4 in this work.

What follows are binders tested against T4, human CREG-His protein (human, UniProt O75629 32-220, limits assumed) (assay: ELISA).
T4 construct: Control antigen in ELISA; also called control human CREG-His
T4 sequence (looked up): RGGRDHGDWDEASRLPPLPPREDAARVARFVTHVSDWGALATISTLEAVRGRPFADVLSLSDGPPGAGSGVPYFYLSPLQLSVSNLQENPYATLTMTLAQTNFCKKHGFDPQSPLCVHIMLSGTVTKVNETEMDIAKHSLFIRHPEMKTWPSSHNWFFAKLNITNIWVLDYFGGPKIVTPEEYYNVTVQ
B1: no binding (tested: 28 ng/ml). B2: no binding (tested: 28 ng/ml). B3: no binding (tested: 28 ng/ml). B4: no binding (tested: 28 ng/ml).

Each binder was assayed against T5, mouse TNFR2 (mouse, UniProt P25119 23-258, limits assumed) (assay: ELISA).
T5 sequence (looked up): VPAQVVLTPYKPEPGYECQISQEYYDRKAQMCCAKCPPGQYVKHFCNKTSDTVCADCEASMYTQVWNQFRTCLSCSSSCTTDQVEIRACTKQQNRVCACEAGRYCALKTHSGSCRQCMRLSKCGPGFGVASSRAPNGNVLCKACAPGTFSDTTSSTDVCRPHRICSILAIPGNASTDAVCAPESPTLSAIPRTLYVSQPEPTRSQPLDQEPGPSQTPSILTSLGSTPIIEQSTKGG
B1: no binding (tested: 28 ng/ml). B2: no binding (tested: 28 ng/ml). B3: no binding (tested: 28 ng/ml). B4: no binding (tested: 28 ng/ml).

Biological target: T1, human TNFR2 on the cell surface …
Test: cell-based or functional assay
Remark: another data set of the same source
For B1, the “% AUC versus positive control (#52), ADCC against Treg” value (from here on “% AUC versus positive control”) was 46.6%. With B2 the “% AUC versus positive control” value was 52.7%. B3 was tested, and the “% AUC versus positive control” value was 69%. For B4, the “% AUC versus positive control” value was 70.7%.
